We go through one substance from patent US20140044674A1.

In this assay the target is IL-10R on freshly isolated human blood monocytes (human) (UniProt Q13651). Kind of assay: cell-based or functional assay.
Chain of IL-10R on freshly isolated human blood monocytes (human) (Q13651 22-578, chain 1 of 2): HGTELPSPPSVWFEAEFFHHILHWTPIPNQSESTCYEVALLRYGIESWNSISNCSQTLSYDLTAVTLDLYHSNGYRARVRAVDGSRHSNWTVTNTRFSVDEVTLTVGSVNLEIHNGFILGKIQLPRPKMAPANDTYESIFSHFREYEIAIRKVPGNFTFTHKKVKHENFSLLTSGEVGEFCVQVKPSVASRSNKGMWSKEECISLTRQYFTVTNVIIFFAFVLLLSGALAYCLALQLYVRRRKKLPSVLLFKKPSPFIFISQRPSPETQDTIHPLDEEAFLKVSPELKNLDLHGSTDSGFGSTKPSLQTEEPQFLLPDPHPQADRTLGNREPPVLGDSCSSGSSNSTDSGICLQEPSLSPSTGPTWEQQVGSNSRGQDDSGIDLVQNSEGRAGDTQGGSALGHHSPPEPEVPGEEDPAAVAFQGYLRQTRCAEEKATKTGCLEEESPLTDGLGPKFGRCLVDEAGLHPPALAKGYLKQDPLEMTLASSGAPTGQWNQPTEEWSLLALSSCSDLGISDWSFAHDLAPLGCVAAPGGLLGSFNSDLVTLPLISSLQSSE
Chain of IL-10R on freshly isolated human blood monocytes (human) (Q08334 20-325, chain 2 of 2, further chain): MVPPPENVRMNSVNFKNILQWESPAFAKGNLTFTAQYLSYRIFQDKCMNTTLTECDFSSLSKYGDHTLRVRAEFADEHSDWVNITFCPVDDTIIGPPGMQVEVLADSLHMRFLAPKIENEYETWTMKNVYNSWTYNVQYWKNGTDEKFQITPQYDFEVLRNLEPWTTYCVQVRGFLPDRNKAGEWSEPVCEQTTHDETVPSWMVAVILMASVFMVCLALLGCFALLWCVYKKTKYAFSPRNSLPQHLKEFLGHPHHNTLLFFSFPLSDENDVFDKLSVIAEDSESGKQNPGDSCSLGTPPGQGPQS

With “recombinant wild type human IL-10 (from UniProt P22301 19-178) (ligand)”, the EC50 [nM] pSTAT3 induction, primary monocytes came out at 0.017 nM; the EC50 [nM] pSTAT3 induction, primary monocytes, Donor 1 worked out at 0.029 nM; the EC50 [nM] pSTAT3 induction, primary monocytes, Donor 2 turned out to be 0.019 nM; the EC50 [nM] pSTAT3 induction, primary monocytes, Donor 3 amounted to 0.021 nM.
